Measured values reported in patent US20240402190A1.

Target: SERCA1a, mouse (endogenous, mouse myotubes) (mouse) (UniProt Q8R429)
Assay: cell-based or functional assay

Chain of UniProt Q8R429 (Q8R429 whole entry): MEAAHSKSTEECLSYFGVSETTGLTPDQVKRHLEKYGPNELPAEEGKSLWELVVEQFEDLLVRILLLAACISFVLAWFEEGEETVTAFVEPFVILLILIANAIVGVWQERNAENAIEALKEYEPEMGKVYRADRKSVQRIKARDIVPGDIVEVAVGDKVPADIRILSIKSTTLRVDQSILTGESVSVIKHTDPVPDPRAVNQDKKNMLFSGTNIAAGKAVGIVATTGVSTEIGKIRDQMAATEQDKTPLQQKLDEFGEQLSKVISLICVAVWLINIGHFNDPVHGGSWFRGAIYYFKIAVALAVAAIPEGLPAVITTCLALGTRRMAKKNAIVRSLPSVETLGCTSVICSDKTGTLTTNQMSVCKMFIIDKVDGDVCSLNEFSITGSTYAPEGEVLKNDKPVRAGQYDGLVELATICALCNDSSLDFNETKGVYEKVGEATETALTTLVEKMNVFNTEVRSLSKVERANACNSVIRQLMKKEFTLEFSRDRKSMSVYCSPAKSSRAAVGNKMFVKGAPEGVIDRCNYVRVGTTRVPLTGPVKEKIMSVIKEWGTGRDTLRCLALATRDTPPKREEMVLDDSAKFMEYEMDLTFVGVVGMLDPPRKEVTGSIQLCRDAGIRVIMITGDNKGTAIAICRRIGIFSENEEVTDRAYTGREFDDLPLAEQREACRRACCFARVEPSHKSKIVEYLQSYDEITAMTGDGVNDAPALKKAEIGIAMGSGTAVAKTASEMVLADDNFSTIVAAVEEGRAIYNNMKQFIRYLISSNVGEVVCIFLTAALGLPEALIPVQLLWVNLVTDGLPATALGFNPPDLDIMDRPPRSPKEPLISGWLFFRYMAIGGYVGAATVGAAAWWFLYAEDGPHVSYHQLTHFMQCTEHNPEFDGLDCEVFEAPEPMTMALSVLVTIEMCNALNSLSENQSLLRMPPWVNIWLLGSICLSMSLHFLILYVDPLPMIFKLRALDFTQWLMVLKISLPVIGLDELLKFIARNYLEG

Caffeine response (normalized ratio to vector control)	KCl response (normalized ratio to vector control)	Releasable Ca^2+ level from SR (normalized ratio to vector control)	Substance
0.97	0.94	0.99	NHL-Del (TRIM32 lacking the NHL repeat) expressed in mouse myotubes (from UniProt Q13049 1-357)
1.22	1.27	1.48	wild-type TRIM32 expressed in mouse myotubes (from UniProt Q13049 1-653)
